From article PMC4478124

Tests used:
Experiment in all cases: SPR
[1] = target: MBP-P66M-D205A,D207A fusion protein (Borrelia burgdorferi) (UniProt H7C7N8)
[2] = target: MBP-P66M fusion protein (wild-type middle portion of Borrelia burgdorferi P66, a.a. 170-404) (Borrelia burgdorferi) (UniProt H7C7N8)
[3] = target: MBP-P66M-Del202-208 fusion protein (Borrelia burgdorferi) (UniProt H7C7N8)

Substance	Kd [1] [µM]	kon [1] [M⁻¹ s⁻¹]	kon [2] [M⁻¹ s⁻¹]	Kd [3] [µM]
purified recombinant human integrin αvβ3 (carrier free) (from UniProt P06756 31-1048; P05106 27-718) (receptor)	29.3	710	321000	178
purified recombinant mouse integrin αvβ3 (carrier free) (from UniProt P43406 31-1044; O54890 26-717) (receptor)	20.3	1450	112000	264
